Data as given in patent publication US8969060B2, “Modified glucose dehydrogenase” (Ikeda Food Research Co., Ltd., priority 2011, dated 2015).
Numbering of substitutions follows the chain as printed. In names and notes the source's numbering stands.

B1: H341P: modified GLD: SEQ ID NO: 1 with substitution H341P (protein, listed as Aspergillus terreus)
chain: MLGKLSFLSALSLAVAAPLSNSTSAKYDYIVIGGGTSGLAVANRLSEDPNVNVLILEAGGSVWNNPNVTNVDGYGLAFGSDIDWQYQSVNQPYGGNLSQVLRAGKALGGTSTINGMAYTRAEDVQIDAWETIGNTGWTWKNLFPYYRKSENFTVPTKSQTSLGASYEAGAHGHEGPLDVAFTQIESNNLTTYLNRTFQGMGLPWTEDVNGGKMRGFNLYPSTVNLEEYVREDAARAYYWPYKSRPNLHVLLNTFANRIVWDGEAHDGHITASGVEITSRNGTVRVINAEKEVIVSAGALKSPAILELSGIGNPSVLDKHNIPVKVNLPTVGENLQDQVNSPMDASGNTSISGTKAVSYPDVYDVFGDEAESVAKQIRANLKQYAADTAKANGNIMKAADLERLFEVQYDLIFKGRVPIAEVLNYPGSATSVFAEFWALLPFARGSVHIGSSNPAEFPVINPNYFMLDWDAKSYVAVAKYIRRSFESYPLSSIVKESTPGYDVIPRNASEQSWKEWVFDKNYRSNFHPVGTAAMMPREIGGVVDERLNVYGTTNVRVVDASVLPFQVCGHLVSTLYAVAERAADLIKADAGRR
modifications: SIGNAL (1)..(19)
B2: D343Y: modified GLD: SEQ ID NO: 1 with substitution D343Y (protein, listed as Aspergillus terreus)
chain: B1 chain with P341H, D343Y
modifications: SIGNAL (1)..(19)
B3: A298I: modified GLD: SEQ ID NO: 1 with substitution A298I (protein, listed as Aspergillus terreus)
chain: B1 chain with A298I, P341H
modifications: SIGNAL (1)..(19)
B4: D343E: modified GLD: SEQ ID NO: 1 with substitution D343E (protein, listed as Aspergillus terreus)
chain: B1 chain with P341H, D343E
modifications: SIGNAL (1)..(19)
B5: D343W: modified GLD: SEQ ID NO: 1 with substitution D343W (protein, listed as Aspergillus terreus)
chain: B1 chain with P341H, D343W
modifications: SIGNAL (1)..(19)
B6: H341R: modified GLD: SEQ ID NO: 1 with substitution H341R (protein, listed as Aspergillus terreus)
chain: B1 chain with P341R
modifications: SIGNAL (1)..(19)
B7: D343R: modified GLD: SEQ ID NO: 1 with substitution D343R (protein, listed as Aspergillus terreus)
chain: B1 chain with P341H, D343R
modifications: SIGNAL (1)..(19)
B8: D343F: modified GLD: SEQ ID NO: 1 with substitution D343F (protein, listed as Aspergillus terreus)
chain: B1 chain with P341H, D343F
modifications: SIGNAL (1)..(19)
B9: D343L: modified GLD: SEQ ID NO: 1 with substitution D343L (protein, listed as Aspergillus terreus)
chain: B1 chain with P341H, D343L
modifications: SIGNAL (1)..(19)
B10: D343K: modified GLD: SEQ ID NO: 1 with substitution D343K (protein, listed as Aspergillus terreus)
chain: B1 chain with P341H, D343K
modifications: SIGNAL (1)..(19)
B11: D343H: modified GLD: SEQ ID NO: 1 with substitution D343H (protein, listed as Aspergillus terreus)
chain: B1 chain with P341H, D343H
modifications: SIGNAL (1)..(19)
B12: H341Y: modified GLD: SEQ ID NO: 1 with substitution H341Y (protein, listed as Aspergillus terreus)
chain: B1 chain with P341Y
modifications: SIGNAL (1)..(19)
B13: H341Q: modified GLD: SEQ ID NO: 1 with substitution H341Q (protein, listed as Aspergillus terreus)
chain: B1 chain with P341Q
modifications: SIGNAL (1)..(19)
B14: H341S: modified GLD: SEQ ID NO: 1 with substitution H341S (protein, listed as Aspergillus terreus)
chain: B1 chain with P341S
modifications: SIGNAL (1)..(19)
B15: D343Q: modified GLD: SEQ ID NO: 1 with substitution D343Q (protein, listed as Aspergillus terreus)
chain: B1 chain with P341H, D343Q
modifications: SIGNAL (1)..(19)
B16: D343M: modified GLD: SEQ ID NO: 1 with substitution D343M (protein, listed as Aspergillus terreus)
chain: B1 chain with P341H, D343M
modifications: SIGNAL (1)..(19)
B17: D343I: modified GLD: SEQ ID NO: 1 with substitution D343I (protein, listed as Aspergillus terreus)
chain: B1 chain with P341H, D343I
modifications: SIGNAL (1)..(19)
B18: H341V: modified GLD: SEQ ID NO: 1 with substitution H341V (protein, listed as Aspergillus terreus)
chain: B1 chain with P341V
modifications: SIGNAL (1)..(19)
B19: D343A: modified GLD: SEQ ID NO: 1 with substitution D343A (protein, listed as Aspergillus terreus)
chain: B1 chain with P341H, D343A
modifications: SIGNAL (1)..(19)
B20: D343V: modified GLD: SEQ ID NO: 1 with substitution D343V (protein, listed as Aspergillus terreus)
chain: B1 chain with P341H, D343V
modifications: SIGNAL (1)..(19)
B21: D343S: modified GLD: SEQ ID NO: 1 with substitution D343S (protein, listed as Aspergillus terreus)
chain: B1 chain with P341H, D343S
modifications: SIGNAL (1)..(19)

Test: Relative enzymatic activity of GLD (DCIP/1-m-PMS, plate reader, yeast culture supernatant) with 1,10-phenanthroline present
Assay type: biochemical
Conditions: site-specific mutants, inhibitor final concentration 1 mM
Method: (§1) The susceptibility defined in the present specification is evaluated in terms of a relative activity that is determined in a system wherein the inhibitor coexists or not. The relative activity is derived from a relative value (%) of an enzymatic activity (a sample value) obtained with the addition of the inhibitor in the determination of the enzymatic activity described in the present specification as compared with an enzymatic activity (a blank value) as “100%” obtained without the addition of the inhibitor in the same determination. Thus, the higher the relative activity is, the less the susceptibility to the inhibitor is (or the more the susceptibility to the inhibitor is reduced), vice versa.
(§2) The enzymatic activity is determined in the following manner in Examples 3 and 6 wherein a plate reader (Japan Molecular Device Corporation, SpectraMax Plus384) is used. Thus, culture supernatant that had been diluted in advance with an appropriate magnification is added to a 96-well microplate with an amount of 100 μl per well. A reagent for the determination of the enzymatic activity comprising phosphate buffer (pH 7.0), 1.0 M D-glucose, 3 mM DCIP, 3 mM 1-m-PMS and methanol with a volume ratio of 0.1:1:0.14:0.2:0.06 is added to the 96-well microplate with an amount of 100 μl per well, and a change in the absorbance of DCIP at 600 nm (ΔABS/min) is then determined. The enzymatic activity can be calculated by conversion in proportion to a change in the absorbance of an enzyme solution for which the enzymatic activity has already been known by the above-mentioned activity determination procedure using the spectrophotometer.
(§3) In the following examples, a value of the enzymatic activity determined by the spectrometer or plate reader using the above reagent composition is considered as a blank value. On the other hand, a sample value is determined using a methanol solution comprising the inhibitor such as 1,10-phenanthroline or proflavin hydrochloride at a final concentration of 1 mM instead of the methanol. Enzymatic activity (unit/mL)=(−ΔABS/16.3)×3.0/0.05×(Dilution ratio of enzyme) [Equation 1]
Into each well of a 96-well microplate (manufactured by Nunc, Inc.), a YPD medium containing 125 μL of 1.0% (w/v) yeast extract (manufactured by BD), 2.0% (w/v) tryptone (manufactured by BD), 2.0% (w/v) glucose (manufactured by Wako Pure Chemical Industries, Ltd.) was dispensed, and the transformant colonies obtained in Example 2 were inoculated thereinto one by one.
After shaking culture at 30° C. and 1,000 rpm for 24 hours, the culture mixture was centrifuged and the supernatant was collected.
According to the above-mentioned method for the determination of enzymatic activity, a blank value and a sample value were determined using a plate reader, and the relative activity (%) was obtained by dividing the sample value by the blank value.

Molecule | Relative Activity [%] 1,10-Phenanthroline
B1 | 88.3%
B2 | 96.2%
B3 | 73.7%
B4 | 61.4%
B5 | 94.2%
B6 | 78.6%
B7 | 80.7%
B8 | 95.3%
B9 | 100.5%
B10 | 95.9%
B11 | 87.5%
B12 | 93.6%
B13 | 97.5%
B14 | 90.4%
B15 | 86.2%
B16 | 91.2%
B17 | 88.6%
B18 | 96.1%
B19 | 72.5%
B20 | 96.7%
B21 | 70.1%

Test: Relative enzymatic activity of GLD (DCIP/1-m-PMS, plate reader, yeast culture supernatant) with proflavin hydrochloride present
Assay type: biochemical
Conditions: site-specific mutants, inhibitor final concentration 1 mM
Method: as §1, §2, §3

Molecule | Relative Activity [%] Proflavin hydrochloride
B1 | 43.2%
B2 | 55.6%
B3 | 43.8%
B4 | 58.2%
B5 | 57.9%
B6 | 69.5%
B7 | 37.9%
B8 | 65.7%
B9 | 73.2%
B10 | 51.8%
B11 | 62.8%
B12 | 77.8%
B13 | 68.1%
B14 | 76.6%
B15 | 47.0%
B16 | 52.9%
B17 | 71.5%
B18 | 71.4%
B19 | 51.2%
B20 | 67.7%
B21 | 48.3%
